The results in this text go back to patent US5683884 (ZymoGenetics, Inc., dated 1997).

For orientation: Kd means the concentration at which binding is half-saturated.

Bridges are numbered along the chain shown (N, C = ends). Where no end group is shown, it is not given here.

In assay [1] the target is T1, calcitonin receptor of T-47D human breast carcinoma cells (endogenous, positive control) (human, UniProt P30988).
T1 sequence: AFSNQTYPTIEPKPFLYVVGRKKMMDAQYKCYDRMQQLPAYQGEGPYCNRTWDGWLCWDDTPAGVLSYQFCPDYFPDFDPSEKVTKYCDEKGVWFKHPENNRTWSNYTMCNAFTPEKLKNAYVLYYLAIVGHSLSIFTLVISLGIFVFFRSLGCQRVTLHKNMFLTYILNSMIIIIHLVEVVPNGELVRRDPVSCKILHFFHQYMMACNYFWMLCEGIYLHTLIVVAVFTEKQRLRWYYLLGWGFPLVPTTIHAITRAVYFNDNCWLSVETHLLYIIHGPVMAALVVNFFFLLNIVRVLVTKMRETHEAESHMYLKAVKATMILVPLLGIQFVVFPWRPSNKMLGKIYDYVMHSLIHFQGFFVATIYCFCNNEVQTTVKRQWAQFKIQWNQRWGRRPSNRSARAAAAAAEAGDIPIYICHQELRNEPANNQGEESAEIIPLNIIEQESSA
The assay is described as follows: 125I calcitonin competition binding on whole T47D cells (positive control), average. The method, then: (§1) Clones Hollex1 and Hollex2 were tested for receptor-mediated ability to bind calcitonin using a competition assay. T47D cells were used as a positive control and BHK cells transfected with Zem1698 were used as a negative control.
(§2) The cells were plated at a density of 1×10^5 cells/well in a 24-well cell culture dish and allowed to grow for 48 hours at 37° C. and 5% CO_2 in growth medium (described in previous examples). The cells were rinsed in binding medium (500 ml RPMI 1640 (Sigma, St. Louis, Mo.), 1 mg/ml bacitracin (Sigma), and 1 mg/ml BSA (Boehringer Mannheim)) to remove the serum. Three hundred microliters of binding medium containing radiolabeled ^125I agonist and a serial dilution of unlabeled competitor (Table 1) were added to appropriate wells. The cells were incubated for 1.5 hours at room temperature, and then rinsed 3 times with PBS to remove unincorporated radioactivity. Five hundred microliters of 0.25N NaOH was added to each well to solubilize the cells. The samples were collected from each well and CPMs were counted on a gamma counter.

Assay [2] deals with T2, human calcitonin receptor (cDNA clone pHollex, from T-47D breast carcinoma cDNA), expressed in transfected BHK cells (human).
T2 sequence: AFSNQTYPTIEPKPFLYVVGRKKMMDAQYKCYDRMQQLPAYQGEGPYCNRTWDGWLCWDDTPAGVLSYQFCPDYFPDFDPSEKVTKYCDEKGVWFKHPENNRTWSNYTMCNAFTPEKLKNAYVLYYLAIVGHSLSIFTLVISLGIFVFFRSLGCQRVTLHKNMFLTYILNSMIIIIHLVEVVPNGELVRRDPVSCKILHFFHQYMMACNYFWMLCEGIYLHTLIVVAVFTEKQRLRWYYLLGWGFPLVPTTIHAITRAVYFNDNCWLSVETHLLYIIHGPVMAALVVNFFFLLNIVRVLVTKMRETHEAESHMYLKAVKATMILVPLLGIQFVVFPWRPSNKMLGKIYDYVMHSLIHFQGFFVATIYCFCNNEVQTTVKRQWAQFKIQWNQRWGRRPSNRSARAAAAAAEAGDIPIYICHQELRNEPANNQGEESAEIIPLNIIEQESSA

The target in assay [3] is T3, human calcitonin receptor (cDNA clone pHollex, from T-47D breast carcinoma cDNA), expressed in transfected … (human).
T3 chain: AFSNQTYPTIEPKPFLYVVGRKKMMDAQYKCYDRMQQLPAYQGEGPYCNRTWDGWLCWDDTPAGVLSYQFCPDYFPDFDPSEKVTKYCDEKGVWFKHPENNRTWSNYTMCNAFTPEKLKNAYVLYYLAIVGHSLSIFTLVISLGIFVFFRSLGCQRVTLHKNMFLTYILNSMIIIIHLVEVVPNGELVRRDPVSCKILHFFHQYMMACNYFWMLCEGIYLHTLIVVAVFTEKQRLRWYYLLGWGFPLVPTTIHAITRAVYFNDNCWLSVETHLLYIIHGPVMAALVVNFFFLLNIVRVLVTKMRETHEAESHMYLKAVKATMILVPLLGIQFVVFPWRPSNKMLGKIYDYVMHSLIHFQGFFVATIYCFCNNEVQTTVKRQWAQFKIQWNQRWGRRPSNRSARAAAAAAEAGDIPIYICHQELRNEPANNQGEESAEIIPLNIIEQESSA
Put plainly: 125I calcitonin competition binding on whole cells, clone Hollex2, average. As to the method: as §1, §2

Assay [4] has as its target T2, human calcitonin receptor (cDNA clone pHollex, from T-47D breast carcinoma cDNA), expressed in transfected BHK cells (human). The source holds these as a separate data set.
Assay [5] has as its target T3, human calcitonin receptor (cDNA clone …). The assay is described as follows: 125I calcitonin competition binding on whole cells, clone Hollex1, average. The method, then: as §1, §2

B1: salmon calcitonin (ligand)
peptide: CSNLSTCVLGKLSQELHKLQTYPRTNTGSGTP-NH2
modifications: disulfide 1-7; ends not checked; also: also used 125I-labelled as tracer
On to B1, for which, in assay [1], the Kd came out at 0.6 nM. Besides, in assay [2], the ED50 of labeled inositol phosphate levels (Hollex1) worked out at 9.5 nM. Also, the Kd in assay [3] was determined as 0.3 nM. Moreover, in assay [4], the ED50 of cAMP induction (Hollex1) was found to be 0.07 nM; the ED50 of cAMP induction (Hollex2) worked out at 0.04 nM; the induction of cAMP (radioimmunoassay, scintillation proximity assay) (fold induction) came to 12. Also, the Kd in assay [5] turned out to be 0.5 nM.
